These results are taken from PMC7495503.

The target of this data set is T1, Pgi8Cas13b (Porphyromonas gingivalis ATCC 33277, UniProt B2RL97 1-1119).
T1 sequence: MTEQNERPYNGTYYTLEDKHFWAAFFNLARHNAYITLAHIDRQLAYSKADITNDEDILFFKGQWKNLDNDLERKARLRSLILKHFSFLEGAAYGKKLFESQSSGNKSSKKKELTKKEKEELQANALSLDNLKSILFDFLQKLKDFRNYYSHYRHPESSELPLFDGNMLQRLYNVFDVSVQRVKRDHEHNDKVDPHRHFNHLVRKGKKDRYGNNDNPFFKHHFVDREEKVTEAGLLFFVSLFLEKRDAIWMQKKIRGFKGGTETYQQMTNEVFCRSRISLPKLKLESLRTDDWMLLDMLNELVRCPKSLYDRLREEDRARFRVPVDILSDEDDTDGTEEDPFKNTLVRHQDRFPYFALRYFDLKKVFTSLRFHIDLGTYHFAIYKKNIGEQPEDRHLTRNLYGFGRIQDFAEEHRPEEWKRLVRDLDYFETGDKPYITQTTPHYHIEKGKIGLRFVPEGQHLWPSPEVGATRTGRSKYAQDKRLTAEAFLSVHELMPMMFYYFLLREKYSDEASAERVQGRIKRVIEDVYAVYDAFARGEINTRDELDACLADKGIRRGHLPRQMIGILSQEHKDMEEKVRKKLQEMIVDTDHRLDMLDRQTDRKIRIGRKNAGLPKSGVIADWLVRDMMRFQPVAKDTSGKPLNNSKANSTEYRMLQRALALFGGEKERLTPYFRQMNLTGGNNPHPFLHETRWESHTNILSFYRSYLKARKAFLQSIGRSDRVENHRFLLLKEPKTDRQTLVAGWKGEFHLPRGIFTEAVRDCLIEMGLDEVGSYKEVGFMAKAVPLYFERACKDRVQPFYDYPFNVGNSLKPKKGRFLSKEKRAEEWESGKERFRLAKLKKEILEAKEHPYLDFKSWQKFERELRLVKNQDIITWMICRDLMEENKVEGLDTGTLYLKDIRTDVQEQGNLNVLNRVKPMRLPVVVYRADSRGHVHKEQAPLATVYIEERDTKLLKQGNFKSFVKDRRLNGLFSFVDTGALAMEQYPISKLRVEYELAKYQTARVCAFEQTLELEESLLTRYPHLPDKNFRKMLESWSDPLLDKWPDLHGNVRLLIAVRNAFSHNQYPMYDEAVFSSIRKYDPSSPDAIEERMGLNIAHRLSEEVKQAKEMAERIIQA
In words: EMSA.

B1: Pgi8 crRNA (SP2), Cy5 body-labeled (structured_RNA)
RNA: GCAAGUGGAAUUAAUCUUUUUUCUUCUUUACGUUGGAUCUUCCCUCUAUUCGAAGGGUACACACAAC
In general, Kd refers to the concentration at which binding is half-saturated. Low readings indicate higher affinity, high ones lower affinity. Take B1: the affinity, expressed as Kd, was 18 nM.
